The test concerns the target Trx-N variant protein (homo sapiens and HIV hybrid). The test is described as follows: immunoassay on plate-adsorbed Trx-N, detection with anti-GST antibody.

B1: glutathione S-transferase (GST), unmodified (other)
chain: MACGHVKLIYFNGRGRAEPIRMILVAAGVEFEDERIEFQDWPKIKPTIPGGRLPIVKITDKRGDVKTMSESLAIARFIARKHNMMGDTDDEYYIIEKMIGQVEDVESEYHKTLMKPPEEKEKISKEILNGKVPILLQAICETLKESTGNLTVGDKVTLADVVLIASIDHITDLDKEFLTGKYPEIHKHRKHLLATSPKLAKYLSERHATAFLVPRGSPGIHRD
As to B1, the binding result was “no binding”.
